Measured values as given in patent US20240002860, “SARS-CoV-2 SPIKE GLYCOPROTEIN-BINDING NUCLEIC ACID MOLECULE, SARS-CoV-2 DETECTION SENSOR, SARS-CoV-2 DETECTION REAGENT, SARS-CoV-2 DETECTION METHOD, AND SARS-CoV-2 VIRUS DEACTIVATOR” (NEC Solution Innovators, Ltd., published 2024).
Numbering of substitutions follows the chain as printed.

B1: Binding nucleic acid molecule 13 (ssDNA)
DNA: GCTGATACTCGGTATCCCTAATCTCACCCGATACCGAAAAAAAAAAAAAAAAAAAA
modifications: NG7 (modified thymine, formula 1) at all T 3' of the first 12 nt
B2: Binding nucleic acid molecule 11 (ssDNA)
DNA: TGTGCACTCTCCCGGTATCCCTAATCTCACCCGATACCAAAAAAAAAAAAAAAAAAAA
modifications: NG7 (modified thymine, formula 1) at all T 3' of the first 15 nt
B3: Binding nucleic acid molecule 1 (ssDNA)
DNA: GGTATGTCTCCGCCACTGAAATCCGTGCCTAATCTCACCCCACGGAATTCATGGCAAAGCCGAGGTGTCTTGTATTCAAAAAAAAAAAAAAAAAAAA
modifications: NG7 (modified thymine, formula 1) at underlined T, i.e. T residues 3' of the first 23 nt (underlining of some T differs between printings); 3' poly(dA)20 tail unmodified
B4: Binding nucleic acid molecule 5 (ssDNA)
DNA: GGTTTAGCCCTCGACTCCAAATGTGCACTCTCCCGGTATCCCTAATCTCACCCGATACCGTTGATGTGCTGCCAATACAAAAAAAAAAAAAAAAAAAA
modifications: NG7 (modified thymine, formula 1) at underlined T, i.e. T residues 3' of the first 23 nt (underlining of some T differs between printings)
B5: Binding nucleic acid molecule 7 (ssDNA)
DNA: B4 DNA with A27T, C28G, T29A, C30T, T31A, C33T
modifications: NG7 (modified thymine, formula 1) at all T 3' of the first 23 nt
B6: Binding nucleic acid molecule 8, 5'-biotin (ELAA) (ssDNA)
DNA: CCACTGAAATCCGTGCCTAATCTCACCCCACGGAATTCATGG
modifications: NG7 (modified thymine, formula 1) at all T 3' of the first 11 nt
B7: Binding nucleic acid molecule 1, 5'-biotin (ELAA) (ssDNA)
DNA: GGTATGTCTCCGCCACTGAAATCCGTGCCTAATCTCACCCCACGGAATTCATGGCAAAGCCGAGGTGTCTTGTATTC
modifications: NG7 (modified thymine, formula 1) at underlined T, i.e. T residues 3' of the first 23 nt
B8: Binding nucleic acid molecule 2 (ssDNA)
DNA: GGTATGTCTCCGCCACTGAAATCTAATCTCACATTGTAAGCAAAGGAGAATAAGCAAAGCCGAGGTGTCTTGTATTCAAAAAAAAAAAAAAAAAAAA
modifications: NG7 (modified thymine, formula 1) at all T 3' of the first 23 nt
B9: Binding nucleic acid molecule 6 (ssDNA)
DNA: GGTTTAGCCCTCGACTCCAAATGACATGAGCCAGGTGCATCTTGAACGTCATAGATACCGTTGATGTGCTGCCAATACAAAAAAAAAAAAAAAAAAAA
modifications: NG7 (modified thymine, formula 1) at all T 3' of the first 23 nt
B10: Binding nucleic acid molecule 12 (ssDNA)
DNA: TGACATGAGCCAGGTGCATCTTGAACGTCATAGATACCGTTGATGTGCTGAAAAAAAAAAAAAAAAAAAA
modifications: NG7 (modified thymine, formula 1) at all T 3' of the first 14 nt
B11: Binding nucleic acid molecule 9 (ssDNA)
DNA: TCCGCCACTGAAATCTAATCTCACATTGTAAGCAAAGGAGAATAAAAAAAAAAAAAAAAAAAAAA
modifications: NG7 (modified thymine, formula 1) at all T 3' of the first 15 nt
B12: Binding nucleic acid molecule 8 (ssDNA)
DNA: CCACTGAAATCCGTGCCTAATCTCACCCCACGGAATTCATGGAAAAAAAAAAAAAAAAAAAA
modifications: NG7 (modified thymine, formula 1) at all T 3' of the first 11 nt
B13: Control nucleic acid molecule (Song et al. 2020 aptamer) (ssDNA)
DNA: CAGCACCGACCTTGTGCTTTGGGAGTGCTGGTCCAAGGGCGTTAATGGACAAAAAAAAAAAAAAAAAAAAA
B14: Binding nucleic acid molecule 3 (ssDNA)
DNA: GGTATGTCTCCGCCACTGAAATCCCTGACCGCTGACCAAATCTCAGTGCAGATGCAAAGCCGAGGTGTCTTGTATTCAAAAAAAAAAAAAAAAAAAA
modifications: NG7 (modified thymine, formula 1) at all T 3' of the first 23 nt
B15: Binding nucleic acid molecule 4 (ssDNA)
DNA: GGTATGTCTCCGCCACTGAAATCTTGTCCCCTAATAGGTTCCGACTGACAAGTGCAAAGCCGAGGTGTCTTGTATTCAAAAAAAAAAAAAAAAAAAA
modifications: NG7 (modified thymine, formula 1) at all T 3' of the first 23 nt

biological target: T1, SARS-CoV-2 spike glycoprotein RBD domain (SARS-CoV-2, UniProt P0DTC2 SEQ:1-223); experiment: SPR; settings: not given

Binder | Kd
B1 | < 0.1 nM
B2 | < 0.1 nM
B3 | 1.2 nM
B4 | < 0.1 nM
B5 | < 0.1 nM

biological target: T1, SARS-CoV-2 spike glycoprotein RBD domain; experiment: ELONA; settings: not given

Binder | binding result
B6 | binds
B7 | binds

biological target: T1, SARS-CoV-2 spike glycoprotein RBD domain; experiment: SPR; SB1T, no dextran, 25 C; settings: not given

Binder | Kd
B8 | 1.7 nM
B9 | 3.1 nM
B10 | 2.4 nM
B11 | 2.1 nM
B12 | 2 nM
B13 | 65000 nM

biological target: BSA (bovine serum albumin) (UniProt P02769 P02769:25-607); experiment: SPR; signal approximately 0; settings: tags: Sigma A7906
Sequence (P02769 25-607, one chain of several): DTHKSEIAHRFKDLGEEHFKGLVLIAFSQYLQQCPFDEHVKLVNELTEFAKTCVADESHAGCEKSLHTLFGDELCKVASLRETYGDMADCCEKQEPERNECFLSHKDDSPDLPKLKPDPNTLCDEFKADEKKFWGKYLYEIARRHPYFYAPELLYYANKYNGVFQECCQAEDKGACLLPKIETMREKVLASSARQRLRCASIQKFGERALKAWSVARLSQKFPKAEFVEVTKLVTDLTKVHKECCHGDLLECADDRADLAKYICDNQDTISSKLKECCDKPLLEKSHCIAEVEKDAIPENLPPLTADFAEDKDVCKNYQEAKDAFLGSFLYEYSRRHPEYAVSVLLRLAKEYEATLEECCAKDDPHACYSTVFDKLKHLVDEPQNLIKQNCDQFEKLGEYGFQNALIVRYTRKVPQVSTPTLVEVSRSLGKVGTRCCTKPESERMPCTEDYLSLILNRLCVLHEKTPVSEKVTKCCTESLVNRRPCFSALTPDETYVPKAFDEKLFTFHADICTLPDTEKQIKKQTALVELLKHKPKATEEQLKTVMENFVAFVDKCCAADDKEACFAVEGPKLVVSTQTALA

Binder | binding result
B8 | no binding
B9 | no binding
B3 | no binding
B14 | no binding
B15 | no binding
B4 | no binding
B5 | no binding

biological target: SARS-CoV-2 spike glycoprotein S1+S2 domain (ECD) (SARS-CoV-2, UniProt P0DTC2 SEQ:2-1201); experiment: SPR; 400 nM protein, SB1T, 25 C; settings: tags: His; Sino Biological 40589-V08B1

Binder | binding result
B14 | binds
B15 | binds

biological target: SARS-CoV-2 spike glycoprotein S1 domain (SARS-CoV-2, UniProt P0DTC2 SEQ:2-673); experiment: SPR; 400 nM protein, SB1T, 25 C; settings: tags: Elabscience PKSR030481

Binder | binding result
B14 | binds
B15 | binds

biological target: T1, SARS-CoV-2 spike glycoprotein RBD domain; experiment: SPR; SB1T + 0.1 mM dextran, 25 C; settings: not given

Binder | Kd
B8 | 3.5 nM
B1 | 12 nM
B9 | 6.7 nM
B2 | 16.6 nM
B10 | 7.4 nM
B3 | 3.2 nM
B11 | 20.8 nM
B12 | 5.3 nM
B4 | 2.8 nM
B5 | 5.5 nM
